One may read the Kd as the constant that tells how readily two partners part at equilibrium.

For 1 molecule, Kd results are on record in PMC3683571 (2013).

For this test, the target named is PSMA (Homo sapiens, UniProt Q04609). The experiment in a line: electrochemical impedance spectroscopy.

Where no end group is shown, it is not given here.

Regarding SECVEVFQNSCDW (cysteine pairing not given here; also: displayed on M13 phage) [phage-2 (phage-displayed peptide 2)], the affinity, expressed as Kd, was 54 nM.
